Assay results from patent publication US20120164066A1 (University of Pennsylvania, published 2012).

B1: ALZ (designed binder)
chain: MAFCDGFYACYMDVGGGGGSMASDFLKHCQADHLLDEKGRAQCLLQREMVQSLEQQLVLEKEKLSAMQAHLAGKMALTKASSVASSDKLEHHHHHH
notes: AHNP on the N-terminus of the leucine zipper domain of human FOXP3, with a His-tag; The LZ domain is said to form dimers and tetramers; also called ALZ construct

What was measured:
[1] = molecular target: T1, Her2/neu receptor expressed on cells (T6-17 cells; SKBR3 cells) (UniProt P04626 23-1255); test: FACS on T6-17 cells, 45 min on ice, rabbit anti-His antibody and FITC anti-rabbit antibody
T1 construct: whole, on cells; also called p185 HER2/neu
Protocol: Experiments were conducted to determine whether the ALZ construct (SEQ ID NO. 5) could bind to T6-17 cells, which express the Her2/neu receptor. T6-17 cells were incubated with (dark line) or without (light line) ALZ for 45 min on ice and then with a rabbit anti-His antibody followed by a FITC-labeled anti-rabbit antibody. Other antigen-binding proteins were tested in this manner also.

FcγIIIB Fc receptor = molecular target: T2, FcγIIIB Fc receptor (UniProt O75015 17-200); test: Biacore
T2 construct: The form used in the Biacore experiments is not described; also called FcγIIIB receptor
T2 sequence (O75015 17-200): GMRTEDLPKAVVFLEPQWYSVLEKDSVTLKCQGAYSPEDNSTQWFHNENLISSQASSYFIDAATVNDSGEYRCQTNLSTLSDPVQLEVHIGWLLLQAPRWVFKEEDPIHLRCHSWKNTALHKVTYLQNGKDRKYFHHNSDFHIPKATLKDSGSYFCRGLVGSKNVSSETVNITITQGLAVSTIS
Protocol: In some cases, antigen-binding protein can interact with an Fc receptor, which may facilitate cell-mediated cytotoxicity. Biacore experiments were conducted to determine whether the antigen-binding protein AHNP-CH2-mimic could bind to the FcγIIIB Fc receptor. […] The interaction between AFc, an antigen binding protein consisting of AHNP linked to the Fc region of an IgG1 antibody, and FcγIIIB was examined for comparative purposes. […] Since FcγIIIB is known to have low affinity to IgG1, the level of affinity observed for AHNP-CH2-mimic is very encouraging. Furthermore, a synthetic CH2-mimic peptide was also observed to compete with the monoclonal antibody 4D5 (IgG1) for binding to the FcγIIIB receptor when analyzed in Biacore experiments. Despite the observed competition for FcγIIIB, direct binding between the CH2-mimic peptide alone and FcγIIIB was not detected, possibly due to the inability for the interaction to be detected by Biacore.

Binder | binding result [1] | binding result (FcγIIIB Fc receptor)
B1 | binds | –
FPAPLAPGGLYLGG [synthetic CH2-mimic peptide] | – | no binding
